The assay addresses aquaporin-4 (AQP4) M1 isoform, expressed in HEK 293 cells (UniProt P55088-1 1-323). As to the kind of experiment: co-IP.

Chain of aquaporin-4 (AQP4) M1 isoform, expressed in HEK 293 cells (P55088 whole entry, canonical isoform): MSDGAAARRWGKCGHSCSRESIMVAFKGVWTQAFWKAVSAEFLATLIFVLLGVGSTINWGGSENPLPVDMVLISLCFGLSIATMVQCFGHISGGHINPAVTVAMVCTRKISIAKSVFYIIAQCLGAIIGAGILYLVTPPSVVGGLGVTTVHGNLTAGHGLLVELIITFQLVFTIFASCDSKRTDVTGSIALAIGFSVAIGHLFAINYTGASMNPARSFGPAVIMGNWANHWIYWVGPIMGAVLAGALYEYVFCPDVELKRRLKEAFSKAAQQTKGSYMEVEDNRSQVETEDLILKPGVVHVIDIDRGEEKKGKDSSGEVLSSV

B1: TRPM4, expressed in HEK 293 cells (natural protein)
chain: not shown
In the case of B1, the “fold TRPM4 co-precipitated with AQP4 in SUR1+ cells against SUR1- cells” value stood at 4 fold.

For the origin of these results see paper PMC5759053 (Glia, 2017).
